From US20040235710A1, “Pre-mixes of glp-1 and basal insulin” (published 2004)
No end group written: not given here.

Biological target: T1, human GLP-1 receptor (human, UniProt P43220)
Test: cell-based or functional assay

Binder	GLP-1 receptor activation relative to Val^8-GLP-1(7-37)OH
HVEGTFTSDWSSYLEEQAVKEFIAWLVKGRG [Val^8-Trp^16-Glu^22-Val^25-GLP-1(7-37)OH]	4.4 relative potency
HVEGTFTSDLSSYLEGQAAKEFIAWLVKGRG [Val^8-Leu^16-GLP-1(7-37)OH]	1.1 relative potency
HVEGTFTSDVSSYLEGQALKEFIAWLVKGRG [Val^8-Leu^25-GLP-1(7-37)OH]	0.5 relative potency
HVEGTYTSDVSSYLEGQAAKEFIAWLVKGR-NH2 [Val^8-Tyr^12-GLP-1(7-36)NH2]	1.1 relative potency
HVEGTWTSDVSSYLEGQAAKEFIAWLVKGRG [Val^8-Trp^12-GLP-1(7-37)OH]	1.1 relative potency
HVEGTYTSDYSSYLEGQAAKEFIAWLVKGRG [Val^8-Tyr^12-Tyr^16-GLP-1(7-37)OH]	1.5 relative potency
HGEGTFTSDVSSYLEGQAAKEFIAWLVKGRG [Gly^8-GLP-1(7-37)OH]	1.7 relative potency

Biological target: T1, human GLP-1 receptor
Test: cell-based or functional assay
Remark: another data set of the same source

Binder	GLP-1 Receptor Activation (relative to GLP-1(7-37)OH)
HVEGTFTSDVSSYLEEQAAKEFIAWLVKGR-NH2 [Val^8-Glu^22-GLP-1(7-36)NH2]	1 relative potency
HVEGTFTSDESSYLEGQAAKEFIAWLVKGRG [Val^8-Glu^16-GLP-1(7-37)OH]	0.047 relative potency
HVEGTFTSDASSYLEGQAAKEFIAWLVKGRG [Val^8-Ala^16-GLP-1(7-37)OH]	0.112 relative potency
HVEGTFTSDVSSYLEEQAAKEFIAWLVKGRG [Val^8-Glu^22-GLP-1(7-37)OH]	1.29 relative potency
HVEGTFTSDVSSYLEKQAAKEFIAWLVKGRG [Val^8-Lys^22-GLP-1(7-37)OH]	0.58 relative potency
HVEGTFTSDVSSYLEPQAAKEFIAWLVKGRG [Val^8-Pro^22-GLP-1(7-37)OH]	0.01 relative potency
HVEGTFTSDVSSYLESQAAKEFIAWLVKGRG [Val^8-Ser^22-GLP-1(7-37)OH]	0.5 relative potency
HVEGTFTSDVSSYLEDQAAKEFIAWLVKGRG [Val^8-Asp^22-GLP-1(7-37)OH]	0.4 relative potency
HVEGTFTSDVSSYLEAQAAKEFIAWLVKGRG [Val^8-Ala^22-GLP-1(7-37)OH]	0.56 relative potency
HVEGTFTSDVSSYLEHQAAKEFIAWLVKGRG [Val^8-His^22-GLP-1(7-37)OH]	0.14 relative potency
HVEGTFTSDVSSYLEEKAAKEFIAWLVKGRG [Val^8-Glu^22-Lys^23-GLP-1(7-37)OH]	1.43 relative potency
HVEGTFTSDVSSYLEGQAAKEFIAWLVKGGP-NH2 [Val^8-Gly^36-Pro^37-GLP-1(7-37)NH2]	0.53 relative potency
HVEGTFTSDVSSYKEGQAAKEFIAWLVKGRG [Val^8-Lys^20-GLP-1(7-37)OH]	0.33 relative potency
HVEGTFTSDVSSYLEGQAAKEFIAWLVKGRH [Val^8-His^37-GLP-1(7-37)OH]	0.33 relative potency
HVEGTFTSDVSSYLEGQKAKEFIAWLVKGRG [Val^8-Lys^24-GLP-1(7-37)OH]	0.02 relative potency
HVEGTFTSDVSSYLEGQAAKEFIEWLVKGRG [Val^8-Glu^30-GLP-1(7-37)OH]	0.29 relative potency
HVEGTFTSDVSSYLEGQAAKHFIAWLVKGRG [Val^8-His^27-GLP-1(7-37)OH]	0.37 relative potency
HVEGTFTSDVSSYLEGQAAKEFIDWLVKGRG [Val^8-Asp^30-GLP-1(7-37)OH]	0.15 relative potency
HVEGTFTSDVSSYLEGQAAKEFIAWLVKGHG [Val^8-His^36-GLP-1(7-37)OH]	0.22 relative potency
HAEGTFTSDVSSYLEQQAAKEFIAWLVKGRG [Gln^22-GLP-1(7-37)OH]	0.42 relative potency
HVEGTFTSDLSSYLEGQAAEEFIAWLVKGRG [Val^8-Leu^16-Glu^26-GLP-1(7-37)OH]	0.23 relative potency
HVEGTFTSDVSSYLEGQAAEEFIAWLVKGRG [Val^8-Glu^26-GLP-1(7-37)OH]	1.5 relative potency
HVEGTFTSDVSSYLEKQAAKEFIEWLVKGRG [Val^8-Lys^22-Glu^30-GLP-1(7-37)OH]	0.37 relative potency

Binder	GLP-1 Receptor Activation (relative to GLP-1(7-37)OH)
HVEGTFTSDVSSYLEGQHAKEFIAWLVKGRG [Val^8-His^24-GLP-1(7-37)OH]	0.007 relative potency
HVEGTFTSDVSSYLEGQAAHEFIAWLVKGRG [Val^8-His^26-GLP-1(7-37)OH]	1.6 relative potency
HVEGTFTSDVSSYLEGQAAKEFIAWLKVGRG [Val^8-Lys^33-Val^34-GLP-1(7-37)OH]	0.08 relative potency
HGEGTFTSDVSSYLEGQAAKEFIEWLVKGRG [Gly^8-Glu^30-GLP-1(7-37)OH]	0.29 relative potency
HVEGTFTSDVSSYLEGQAAKEFIAWLVEGRG [Val^8-Glu^34-GLP-1(7-37)OH]	0.17 relative potency
HVEGTFTSDVSSYLEGQAAKEFISWLVKGRG [Val^8-Ser^30-GLP-1(7-37)OH]	0.19 relative potency
HVEGTFTSDVSSYLEGQAAKEFIAWLVKGEG [Val^8-Glu^36-GLP-1(7-37)OH]	0.11 relative potency
HVEGTFTSDVSSYLEGQAAKEFIAWLAKGRG [Val^8-Ala^33-GLP-1(7-37)OH]	0.1 relative potency
HVEGTFTSDVSSYLEGQAAKEFIAWLKNGRG [Val^8-Lys^33-Asn^34-GLP-1(7-37)OH]	0.09 relative potency
HVEGTFTSDVSSYLEGQAAKEFIAWLVGKRG [Val^8-Gly^34-Lys^35-GLP-1(7-37)OH]	0.34 relative potency
HVEGKFTSDVSSYLEGQAAKEFIAWLVKGRG [Val^8-Lys^11-GLP-1(7-37)OH]	0.001 relative potency
HGEGHFTSDVSSYLEGQAAKEFIAWLVKGRG [Gly^8-His^11-GLP-1(7-37)OH]	0.282 relative potency
HVEGAFTSDVSSYLEGQAAKEFIAWLVKGRG [Val^8-Ala^11-GLP-1(7-37)OH]	0.021 relative potency
HVEGTFTSDVSSYLEGQAAKEFIHWLVKGRG [Val^8-His^30-GLP-1(7-37)OH]	0.19 relative potency
HVEGTFTSDVSSYLEGQAAKEFIAWLVKPRG [Val^8-Pro^35-GLP-1(7-37)OH]	0.094 relative potency
HVEGTFTSDVSSYLEGQAAKEFIAWLEKGRG [Val^8-Glu^33-GLP-1(7-37)OH]	0.039 relative potency
HVEGTFTSDVSSYLEGQAAKEFIAWLVKERG [Val^8-Glu^35-GLP-1(7-37)OH]	0.15 relative potency
HVEGTFTSDVSSYLEKEAAKEFIAWLVKGRG [Val^8-Lys^22-Glu^23-GLP-1(7-37)OH]	0.35 relative potency
HVEGTFTSDVSSYLEGQAAKEFIAWLGKGRG [Val^8-Gly^33-GLP-1(7-37)OH]	0.01 relative potency
HVEGTFTSDVSSYLEGQAAKEFIAWLVKHRG [Val^8-His^35-GLP-1(7-37)OH]	0.41 relative potency
HVEGTFTSDVSSYLEGKAAKEFIAWLVKGRG [Val^8-Lys^23-GLP-1(7-37)OH]	0.18 relative potency
HVEGTFTSDVSSYLEKQAAKEFIAWLVKGR-NH2 [Val^8-Lys^22-GLP-1(7-36)NH2]	0.53 relative potency
